# Data as given in paper PMC11261448.
# B1: TOP-2::3xFLAG [C. elegans] / wrmScarlet::TDPT-1 [C. elegans] (parent)
# chain 1: MSNSDDEIQEIEAKRQKMSQEDSEVEIEILDEPEQGKLKNSSMSDEQKLHEFAIITATDEAFAQSILQDVDWDLKKALDVFYGSEAFAEARSAAVMGASSSMASSGAAVMTAEDLKGFEVSVMSWNIDGLDGRSLLTRMKAVAHIVKNVNPDILFLQEVVDRDLAPIDKLQSLYKIYYSNKGCQYYTAILVSKMFDVEKHDVIHFQNSGMYRTLQILEGSIGGLKVFLLNTHLESTREHRPQRCAQFGFCMDKVREIIAQNPGALVFFGGDLNLRDEEVSRVPDGVKDAWEAAGSDNKTKFTWDTFKNDNKQGFHGAKMRFDRLYWSGPLDKVKFTLEGRQRIRSCLCFPSDHWAINATFFA
# chain 2: MSDSDSEFSIEDSPKKKTAPKKEKASPKKKKDDANESMVMTEEDRNVFTSIDKKGGGSKQMAIEDIYQKKSQLEHILLRPDTYIGSVEHTEKTPMWVYNMEESKLEQRDISYVPGLYKIYDEILVNAADNKQRDPKMNTIKITINKEKNEISVYNNGKGIPVTQHKVEKVYVPELIFGTLLTSSNYNDDEKKVTGGRNGYGAKLCNIFSTKFTLETSSRDYKSAFKQTWIKNMTRDEEPKIVKSTDEDFTKITFSPDLAKFKMKELDDDICHLMARRAYDVAGSSKGVAVFLNGKRIPIKGFEDYVQMYTSQFNNEGEPLKIAYEQVGDRWQVALALSEKGFQQVSFVNSIATTKGGRHVDYVADQMVAKFIDSIKRKLTKTSMNIKPFQIKNHMWVFVNCLIENPTFDSQTKETMTLQQKQFGSTCVLSEKFSKAASSVGITDAVMSWVRFKQMDDLNKKCSKTKTSKLKGIPKLEDANDAGTKNSQQCTLILTEGDSAKTLAVSGLSVVGRDKYGVFPLRGKLLNVREGNMKQIADNAEVNAMIKILGLQYKKKYETEDDFKTLRYGKLMVMADQDQDGSHIKGLVINFIHHFWPSLIQRNFVEEFITPIVKATKGKEEVSFYSLPEYSEWRMNTDNWKSYKIKYYKGLGTSTSKEAKEYFLDMVRHRIRFKYNGADDDNAVDMAFSKKKIEERKDWLSKWMREKKDRKQQGLAEEYLYNKDTRFVTFKDFVNRELVLFSNLDNERSIPCLVDGFKPGQRKVLFACFKRADKREVKVAQLAGAVAEISAYHHGEQSLMGTIVNLAQDYVGSNNINLLLPIGQFGTRLQGGKDSASARYIFTQLSPVTRTLFPAHDDNVLRFLYEENQRIEPEWYCPIIPMVLVNGAQGIGTGWSTNIPNYNPRELVKNIKRLIAGEPQKALAPWYKNFRGKIIQIDPSRFACYGEVAVLDDNTIEITELPIKQWTQDYKEKVLEGLMESSDKKSPVIVDYKEYHTDTTVKFVVKLSPGKLRELERGQDLHQVFKLQAVINTTCMVLFDAAGCLRTYTSPEAITQEFYDSRQEKYVQRKEYLLGVLQAQSKRLTNQARFILAKINNEIVLENKKKAAIVDVLIKMKFDADPVKKWKEEQKLKELRESGEIELDEDDLAAVAVEEDEAISSAAKAVETKLSDYDYLVGMALIKLSEEEKNKLIKESEEKMAEVRVIEKKTWQDLWHEDLDNFVSELDKQEAREKADQDASIKNAAKKLAADAKTGRGPKKNVCTEVLPSKDGQRIEPMLDAATKAKYEKMSQPKKERVKKEPKEPKEPKKVKKEGQDIKKFMSPAAPKTAKKEKSDGFNSDMSEESDVEFDEGIDFDSDDDGVEREDVVSKPKPRTGKGAAKAEVIDLSDDDEVPAKKPAPAKKAAPKKKKSEFSDLSGGDSDEEAEKKPSTSKKPSPKKAAPKTAEPKSKAVTDFFGASKKNGKKAAGSDDEDDESFVVAPREKSGRARKAPPTYDVDSGSDSDQPKKKRGRVVDSDSD
# Variants of: B1
# Experiment: co-immunoprecipitation (anti-FLAG magnetic agarose beads) with anti-RFP immunoblot, band quantification
# Conditions: with wrmScarlet::TDPT-1 [C. elegans]; parent: 1; read off a plot
row,Variant,ratio to parent
1,chain 2 R828C,1

# Same assay, conditions: with TOP-2::3xFLAG [C. elegans]; parent: 1; read off a plot
row,Variant,ratio to parent
1,chain 1 MSNSDDEIQEIEAKRQKMSQEDSEVEIEILDEPEQGKLKNSSMSDEQKLHEFAIITATDEAFAQSILQDVDWDLKKALDVFYGSEAFAEARSAAVMGASSSMASSGAAVMTAEDLKRFEVSVMSWNIDGLDGRSLLTRMKAVAHIVKNVNPDILFLQEVVDRDLAPIDKLQSLYKIYYSNKGCQYYTAILVSKMFDVEKHDVIHFQNSGMYRTLQILEGSIGGLKVFLLNTHLESTREHRPQRCAQFGFCMDKVREIIAQNPGALVFFGGDLNLRDEEVSRVPDGVKDAWEAAGSDNKTKFTWDTFKNDNKQGFHGAKMRFDRLYWSGPLDKVKFTLEGRQRIRSCLCFPSDHWAINATFFA [chain 1 G117R],0.42
